Assay: soluble on expression in E. coli; label from the status in PepcDB or PDB records

Sequence	soluble on expression in E. coli
MGSDKIHHHHHHMFVLKNVKYKDILNIEELHIPARKITVITGKSGTGKTTLLKMLNKLISPDSGEIFFKGTPLTEIDSVELRRKVVMLPQFPVVFPGNVKENLLMGLKFSGKKIPHDEELRKILKFVMLEKDLNDDPEKFSGGEKQRLALARVLLMDPEVLLLDEPTSSLDEKTGIEIIKKVSNFAKSRGKTLVMVTHNPELRKFADVLIELKNGRVL	not soluble
ISEFGSTMARAIYDFFSTPFGNRGLATNRTQLSSLLSSSNSPWQRFLSSMTPLTAPGIVSTPEAPYPGSLMYQESMLHSATVPGVLGSRDAWRTFNVFGLSWTDEGLSGLVAAQDPPPAAPYQPASAQWSDLLNYPRWANRRRELQSKYPLLLRSTLLSAMRAGPVLYVETWPNMISGRLADWFMSQYGNNFVDMCARLTQSCSNMPVEPDGNYDQQMRALISLWLLSYIGVVNQTNTISGFYFSSKTRGQALDSWTLFYTTNTNRVQITQRHFAYVCARSPDWNVDKSWIAAANLTAIVMACRQPPVFANQGVINQAQNRPGFSMNGGTPVHELNLLTTAQECIRQWVMAGLVSAAKGQALTQEANDFSNLIQADLGQIKAQDDALYNQQPGYARRIKPFVNGDWTPGMTAQALAVLATFTA	soluble
MLFYLISAIIFTTVAFAAPTPAPTLTVAEEMEAIFQNLTEEAQNDYFQILFDHTLTLAELDQKWDEWAEKHGIADKWAVYTSKWQARKEKFNETTVSVIERLPSTYKMLSEITANRNQTLSQVETALEELKEKFNLEVQLILILSKTLILNEEIVLGGGPIEVGNEVTGNSFRRMRDFKNKNRDVKSLLIPGPL	not soluble
AIAGCASAKHVSTVQNEDDAQNGKNYQNGDAFCDEYRIKPVEEVKYMKNGEEEEQKILSKNQENLVSCLEEKSATHTARSKSNTEAAGAGHPYRINIHISESQQEFFRMLDEKIEKGRDYCSEEEDIT	soluble
MGSDKIHHHHHHMKILVVGAGAVGGYFGARLAEKGEDVTFLVRERRFEELRAGLQVKSLHGDITCSPRLIRTGEKGTFDVILLSTKAYHLEQVLEDIEPFVATDTYILPLLNGMAHLKQLEQHFGAERVLGGLCFIESTLDGKGHIVQTSPSHHLLFGPLPGTRTDRLEELKQHLTGTAAPINYSDTITRDMWNKYLFITTFSGVTSLFRSAIGPIRSQEEGMMMIRRLATEAKEAMERQGAVFSDGIEQIQQQQIAQMDETMKSSLQRDMEKGNEVESAHLFGTLLSKDEATQVMLPAIYANLKIYRMSRKDV	not soluble
MSLLSKDIKLLPGSKVEVVIRVSKNVIQEKYNSLLQDYSSRLKIQGFRIGKVPINVIENKYSEGLKATVLEEVINNSFKEFFKEESKIPLSYATPTVKEKNLKLNLDKDFEFTFTYETYPEFKIPSFDEIDIKVEIPEVFIDDSDIDDEIKNLQIENSIIIEDEEGVVKEDSIVKVDFVELDDLSNEIVSTKRQGFVFTVGKSETYYDFDKDVIGMRINEERVIEKSYIADYKFEELAGSSRKLKIKIKSIKKRDLPLIDDEFAQDISDKYNTLDDLKNFIRSSLLNIVEEKKETLKLNKFFSTISEKLEIDIPHSMIEAEIEIAFKDAKRQNKNNMSLEEFKSIFYSSGYIGGDNLKDEILGNLKSKLIMQKMVDLDPIKVTESDVEDEMARQSKNLGVSYEEIKKFYEDQNLISYLKDDIKRERAKKKILENLKEVKGKKLNFRDFVNYKIEGHHHHHH	soluble
KKRIQTEHCSYNRRRDYPLFKFIEYVLYWGHHYTVSISEKVQEELVKFMPRYQHKYRVVHNGVDLNRFPMTAKQAHDISEKATINIGMVGRLHEHKDHETLIHAIAKLPECYHLHLAGDGDRKASLQRLAQSLNVSPRVHFHGVVSDIPRFLSDMDIYVQSSHVE	not soluble
MGSDKIHHHHHHKVEDLVQIATALEVDTIVLNDELSPSQLTNLEKETNLHFIDRTGLILEIFANRAHSREAKLQVELAKLQYQLPRLRTSSTQRLDQQTAGNTGGGFTNRGSGETKLELNRRTIRNKINHINKELKEMTTSSDIQRKQRDKKDIPSVALVGYTNTGKSTTMNGLVRMYGRNEDKQVFEKDMLFATLDTSVRKLTFPDQKELVLSDTVGFVSHLPHQLVKAFRSTLAEAAKADLLVQIVDISDPHYREMMQTTEDTLNEIGVTDIPMIYAFNKADLAGVSYPTLDGNELTYSAKQLQSLEMVTALIKKQVFKNYVEAKFLIPFNEGQVVDFLNGNADVKKTDYTEEGTEITAELKEKDYQRLARYVIQ	not soluble
MPSKTFLLTHTFKDISKLGEGESYYSDIEIRYNIPWSIQVFKNESFLGLLLNCEKEELLEKKKWSLQVKFTMKLVAVSGKFFQRTVKNEFQNPEGHGMDKFISWENMLRDYVNNDSIVIEINADIVSSSGFFKHKYSPCSQSYSGKSFVLKHNFKNRRFVEAERCFSDIEEHYNVPWRLRIQKYKKGFLGIHLLCEKETCDGRSWSIQCDYELQLISSKGKCYSRHSTFNFEKPGGNYQEVEFINWKVMEEEYMDSDSICVEAHVKICKTQELPCNILSTHRKFVLSHTVRNISSINGGNVYFTDIETRFNVPWKLSFVRQSGFIELYLRCEKKQCLSRTWSIEAEFTLKLVSPHGRSLSLRKIYSFEKSIGNGYSKVMRWDEMKDKYVVDNSIIIEAHVKILNMTGIESETTIKKTSGFTIPVGDMEYSMEKWMEMAFDH	not soluble
MNKWSRLYVITVRRTFPGRRNIVLTQYWNKSKKMSDESNDVKWNDALTPLQLMVLRDKATERPNTGAYLHTNESGVYHCANCDRPLYSSKAKFDARCGWPAFYEEVSPGAITYHRDNSLMPARVEICCARCGGHLGHVFEGEGWKQLLNLPKDTRHCVNSASLNLKKD	not soluble
MGSDKIHHHHHHGKEEEGPIPTDRQVPIGVMEASLSTRVSTRGVINTDIYKLGIFRTNANGYPPQYDAPYSYDGAAGWTATTEILVDHRSASLYAYYPYQSVSFADNTTKAILVAQIYDAAKDMCYGSATSADGSGMINNDHKGVRFIDMKHAYARLKLTFVRGTNVMSGRKCKIENIVLKNNSTNFYLQRQVDITTGTITEGTPAAEGYVHNPNVEIASGNQVYEYLLPPQSLTDNKLTISVTVDGEVRTVTVTAFGGTLNAGGYYHVTLTINDVQIVPSAGVTDNGYTSGDDPKNPIQNNTPSVV	not soluble
MKYTVITGASSGIGYAAALAFASRGKNLVLVARRQEELNGLKLKINEMHPELDVVIRKTDLSVTEDVYKLYESLQAFQIETWINNAGFGNFASIAEQNLNKIETMLHVNIEALTILSSLFVRDYSMIDGTQLINVSSGGGYTIVADAVTYCATKFYVSAFTEGLSHELKEQGAKLQAKVLAPAATETEFAKRSFDIDEFQYDNVVPKFHTAKQMAQFMLDLYDNDKVVGIVDGLTYNYELKDPLYNFAVRQKNSNS	not soluble
MAHHHHHHMLNRSRLRRVWLGGTAANTSLGRDVMPSTGKYINIVSPTDVAANISAGAMPPEANVAAALPVPRIQYSKWNRALRSDVYDELLKLPLRYKLHDFAKLCPPQRCQEEPEAVGVVGRDSAVGYLPPLGPADPLDTIPFFVHRSSNGVLPGKVFSMHPRNLMPAFYLRIQQVEGDMFRFEEELLKIFPTKKIFVRSHSIYVYNVALDGRMVLHHWLLGLGF	not soluble
MGSDKIHHHHHHMAKGLFDRYIWLIDTIYRAGKITFEEINKRWLRTEMSNGEEIPLRTFHNHRKAIETMFDINIECNKRAGYYYYIENADDIDKDKIKKWLLNTFAINNLANESHRLKQRILFEDIPSGKQYLSSIIEAMLENRIIEITYQSYWKEEANTFTIEPFCVKVFKQRWYIIARSPYYDTIMIYALDRIQNLQVTDITFNYPSDFDPQSYFEFSFGIVVDEICNIDKIRIKVYGKKCQYIKALPLHHSQSEVETTKSYSIFEYLLKPTYDFCQELLSHGDEIEVLSPTSLKEQIKEIVKNMSRYYN	not soluble
MPKDWDAFYRNAPEDRPPAFVVRAYGPFVPQGPVLDLAGGLGRNARYFLQRGHPVVLVERSREALRRLSGTPGLTLVALDLEGADAPQSLPQGPFAGIVMAYYVNRPLLQGLAPLLLPGGLVLVEGFSRKEALRRGRPHSPFYWEGEELLTPPPGLALRAFGEGWMEGYRVYAVYLRP	soluble
MGSDKIHHHHHHMVTTRKPLRAAIIGLGRLGERHARHLVNKIQGVKLVAACALDSNQLEWAKNELGVETTYTNYKDMIDTENIDAIFIVAPTPFHPEMTIYAMNAGLNVFCEKPLGLDFNEVDEMAKVIKSHPNQIFQSGFMRRYDDSYRYAKKIVDNGDIGKIIYMRGYGIDPISGMESFTKFATEADSGGIFVDMNIHDIDLIRWFTGQDPVQAYGLTSNIAAPQLADIGEFETGVAQLKMSDGVIATLIGGRHAAHGNQVELEVMGSNGWVRIGEHPDLNRVTVFNDQGVVRPSLQSFGERFDTAFTDEVQDFVNNVIVGKQPEVTVDDGIKALKIAKACQQSANIGKLVDIQL	not soluble
MGSDKIHHHHHHMSQPVWPNFYIIGAVKSGTTSLYAYLRQHPQVFLPAMKEPHFFTQPHPSPEQRHWIQYVGNVEQYQQLYRGAERFPRIGDASPSYLWCEEAPERIHAVQPDARIIVILRDPVQRAHAQYLMDFNEGVLDLPFVEALQRDWTRPDKGWGISQLYVELGRYTAQIMRYQQQFGAGQVHVCLLEDLKKNPLAVLEDIADFLEIDRGPLHDMDLETVHNVHRLPRGNWARQLASGHISRYIGEHLFPRTWGEFVWRNVFLREGRKPPMDAEARSFLQAIYTPEIERLEQLLGRPLPELRISWKFSEPAGQSLSTALPPKPSGNR	not soluble
MKQSIVSLAQVIRSKNAGPYELVLDILFKTKENYERVKSSGQLTPELIARLYHVEPDFIHRIVWFDPSNAVKIVMPRDIISGNVGDNDVYGAQQHAPLLNMSFDL	soluble
MELQDLELQLEERLLGLEEQLRAVRMPSPFRSSALMGMCGSRSTDNLSCPSPLNVMEPVTELMQEQSYLKSELGLGLGEMGFEIPPGESSESVFSKQRSESSSICSGPSHANRRTGVPSTASVGKSKTPLVARKKVFRASVALTPTAPSRTGSVQTPPDLESSEEVDAAEGAPEVVGPKSESEVEEGHGKLPSMPAAEEMHKNVEQDELQQVIREIKESIVGEIRREIVSGLLAAVSSSKASNSKQDYHLEHHHHHH	not soluble
MSLATKFQESEQQGRKREFMNQRNAFFILELELTQEETDAFLPLYNELDTKRYELWKDVRQKRALMERKAELTDADMELIINKSLDNKIAEARLEKEYYYKFKRVLPMRKVMALKVAERKFARLFLKSSYDEGHHHHHH	soluble
TTPTVNATPKIHKRDYQKDVVYLYQFPRIDTVPNLSSFCLKTETFLRAFKIPHEVIETGSLRSRNGTLPFVELNGEHIPDSDLIEVRLRKHFQIPNLSAEDESHATALCRLADNHLLSIIIKYKAAEDAWYSALLRGVPGPNCLKTILKPIVRKLFMKKVHERTGGAIGNFTEDEAEMLCHKDLQAIQDSIKGKYLFGDKITSADCTVFGEVASAYYPFPNKFSRIIDSHYPKLHEYCDRIIEELY	not soluble
GAMGDIDERNIFFELFDRYKLDKFSTWSLQSKKIENDPDFYKIRDDTVRESLFEEWCGE	soluble
MHNVVFVLGPPGSGKGTICAKIQENLNYVHLSAGDLLRAERQREGSEFGALIESHIKNGSIVPVEITCSLLENAMKACGDAKGFLVDGFPRNEDNLQGWNKQMDGKALVQFVLFLSCPVSICIERCLNRGQGRTDDNEESLKKRVETYNQQTFPIIEHFEKSGLVREVKSERPVDVVYADVEKVFDAANKK	not soluble
MGSDKIHHHHHHMATELKTFTDSQFIGKPVLADIEFIPHLEKINDFAATNGLKIFVTSSARPWGVPVGGAIVSPAKMSNHLIGHAIDMNIQIGGKLYTSNELGDFNSLPPPIKAFITTIRNHPVLRWGGDFGDPVHIDDGLNLHNPNLWKDKFPIIQSELTGLTQPGIRAVNSPRLLFLTTPLMKGDDIKVVQEKLIGKGFDLGITGADGFFGQATANAVIKFQDQEDLDPVDGIVGDKTKKALGL	not soluble
